# Laboratory results published in PMC9276808, “Structural identification of riluzole-binding site on human TRPC5” (Cell Discovery, 2022).
# Target: the molecule itself
# Assay: cryo-EM structure; purified hTRPC5(1-764) supplemented with riluzole; single particle analysis, global resolution 2.4 Å
protein,measurement,value
"truncated functional human TRPC5 (hTRPC5_(1–764)) (domain or fragment, UniProt Q9UL62 1-764, looked up, The sample was supplemented with riluzole, and Ca2+, DAG and lipids are seen in the map; also called transient receptor potential canonical subfamily member 5; source: purified) MAQLYYKKVNYSPYRDRIPLQIVRAETELSAEEKAFLNAVEKGDYATVKQALQEAEIYYNVNINCMDPLGRSALLIAIENENLEIMELLLNHSVYVGDALLYAIRKEVVGAVELLLSYRRPSGEKQVPTLMMDTQFSEFTPDITPIMLAAHTNNYEIIKLLVQKRVTIPRPHQIRCNCVECVSSSEVDSLRHSRSRLNIYKALASPSLIALSSEDPILTAFRLGWELKELSKVENEFKAEYEELSQQCKLFAKDLLDQARSSRELEIILNHRDDHSEELDPQKYHDLAKLKVAIKYHQKEFVAQPNCQQLLATLWYDGFPGWRRKHWVVKLLTCMTIGFLFPMLSIAYLISPRSNLGLFIKKPFIKFICHTASYLTFLFMLLLASQHIVRTDLHVQGPPPTVVEWMILPWVLGFIWGEIKEMWDGGFTEYIHDWWNLMDFAMNSLYLATISLKIVAYVKYNGSRPREEWEMWHPTLIAEALFAISNILSSLRLISLFTANSHLGPLQISLGRMLLDILKFLFIYCLVLLAFANGLNQLYFYYETRAIDEPNNCKGIRCEKQNNAFSTLFETLQSLFWSVFGLLNLYVTNVKARHEFTEFVGATMFGTYNVISLVVLLNMLIAMMNNSYQLIADHADIEWKFARTKLWMSYFDEGGTLPPPFNIIPSPKSFLYLGNWFNNTFCPKRDPDGRRRRRNLRSFTERNADSLIQNQHYQEVIRNLVKRYVAAMIRNSKTHEGLTEENFKELKQDISSFRYEVLDLLGNR",stoichiometry N,4
